Source: paper PMC11568366, “Phosphorylation of cytochrome c at tyrosine 48 finely regulates its binding to the histone chaperone SET/TAF‐Iβ in the nucleus” (Protein Science : A Publication of the Protein Society, 2024)

Key:
[1] = biological target: T1, SET/template-activating factor Iβ (SET/TAF-Iβ), recombinant (UniProt Q01105-2 1-277); assay: ITC; 300 μM reduced Cc injected (17 x 2.91 μL) into 30 μM SET/TAF-Iβ (as homodimer) in the cell, 25°C, 10 mM sodium phosphate pH 7.4; WT fitted with two cooperative binding sites, mutants with independent binding sites; conditions: both partners purified
T1 construct: SET/TAF-Iβ, the beta isoform of SET; construct in pET28a(+) from González-Arzola et al. 2015; Concentration is expressed as the functional homodimer
T1 sequence (Q01105 other isoform, or with tags, fused parts or gaps): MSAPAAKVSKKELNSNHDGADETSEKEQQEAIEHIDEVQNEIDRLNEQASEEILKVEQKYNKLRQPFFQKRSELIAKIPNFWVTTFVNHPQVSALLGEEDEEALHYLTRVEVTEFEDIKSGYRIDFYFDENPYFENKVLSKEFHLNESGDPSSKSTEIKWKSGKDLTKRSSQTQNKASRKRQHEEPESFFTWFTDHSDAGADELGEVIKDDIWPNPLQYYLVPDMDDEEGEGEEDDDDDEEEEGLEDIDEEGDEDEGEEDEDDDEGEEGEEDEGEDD

[2] = biological target: T1, SET/template-activating factor Iβ …; assay: as above; conditions: both partners purified; remark: listed apart in the source

Row | dH1 (first site) [1] [kcal/mol] | dH2 (second site) [1] [kcal/mol] | stoichiometry N [2] | Kd [1] [µM] | dH [1] [kcal/mol] | stoichiometry N [1] | Binder
1 | 1.3 | 6.9 | 2 Cc per SET/TAF-Iβ homodimer | – | – | – | wild-type cytochrome c (reduced) (natural protein, cytochrome c, human; Hemeprotein, kept reduced with sodium ascorbate in ITC and NMR; Construct and expression as in cited earlier work (Moreno-Beltrán et al. 2015; Olteanu et al. 2003); also called WT Cc; Cc) not shown
2 | – | – | – | 110 | -19 | 2.3 | Y48E cytochrome c phosphomimetic mutant (reduced) (natural protein, cytochrome c, human; Hemeprotein, reduced in ITC; also called Y48E Cc) not shown
3 | – | – | – | 22 | -7.5 | 2.2 | Y48D cytochrome c phosphomimetic mutant (reduced) (natural protein, cytochrome c, human; Hemeprotein, reduced in ITC; also called Y48D Cc) not shown
